US20210221899A1 (published 2021)
Where a chain is given by its changes, count along the chain named.

T1: human NGF (human, UniProt P01138 122-241)
T1 construct: also called human Nerve Growth Factor; hN
T1 chain: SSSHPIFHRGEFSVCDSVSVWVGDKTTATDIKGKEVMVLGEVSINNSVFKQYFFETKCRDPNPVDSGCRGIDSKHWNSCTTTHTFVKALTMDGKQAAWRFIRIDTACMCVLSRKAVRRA

T2: canine NGF (canine, UniProt Q29074 110-229 (pig entry), limits assumed)
T2 construct: The protein was secreted from CHO cells and purified; also called cNGF; canine β-NGF
T2 chain: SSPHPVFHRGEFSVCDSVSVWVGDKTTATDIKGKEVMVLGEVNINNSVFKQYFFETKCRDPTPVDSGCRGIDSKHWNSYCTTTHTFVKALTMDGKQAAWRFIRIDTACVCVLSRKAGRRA

B1: can9L12VH_E99A (antibody, V domains shown)
VH: EVQLVESGGDLVKPGGSLRLSCVASGFTFSSHGMHWVRQSPGKGLQWVAVINSGGSSTYYTDAVKGRFTISRDNAKNTVYLQMNSLRAEDTAMYYCAKASVGGWEQLVGPHFDYWGQGTLVIVSS
VL: QSVLTQPTSVSGSLGQRVTISCSGSTNNIGILGASWYQLFPGKAPKLLVYGNGNRPSGVPDRFSGADSGDSVTLTITGLQAEDEADYYCQSFDTTLGAHVFGGGTHLTVL
B2: can9L12VH_E105A (antibody, V domains shown)
VH: B1 VH with A99E, E105A
VL: B1 VL
B3: can9L12VH_F27A (antibody, V domains shown)
VH: B1 VH with F27A, A99E
VL: B1 VL
B4: can9L12VH_F29A (antibody, V domains shown)
VH: B1 VH with F29A, A99E
VL: B1 VL
B5: can9L12VH_F112A (antibody, V domains shown)
VH: B1 VH with A99E, F112A
VL: B1 VL
B6: can9L12VH_G26A (antibody, V domains shown)
VH: B1 VH with G26A, A99E
VL: B1 VL
B7: can9L12VH_G33A (antibody, V domains shown)
VH: B1 VH with G33A, A99E
VL: B1 VL
B8: can9L12VH_G54A (antibody, V domains shown)
VH: B1 VH with G54A, A99E
VL: B1 VL
B9: can9L12VH_G55A (antibody, V domains shown)
VH: B1 VH with G55A, A99E
VL: B1 VL
B10: can9L12VH_G102A (antibody, V domains shown)
VH: B1 VH with A99E, G102A
VL: B1 VL
B11: can9L12VH_G103A (antibody, V domains shown)
VH: B1 VH with A99E, G103A
VL: B1 VL
B12: can9L12VH_G109A (antibody, V domains shown)
VH: B1 VH with A99E, G109A
VL: B1 VL
B13: can9L12VH_H32A (antibody, V domains shown)
VH: B1 VH with H32A, A99E
VL: B1 VL
B14: can9L12VH_H111A (antibody, V domains shown)
VH: B1 VH with A99E, H111A
VL: B1 VL
B15: can9L12VH_K98A (antibody, V domains shown)
VH: B1 VH with K98A, A99E
VL: B1 VL
B16: can9L12VH_L107A (antibody, V domains shown)
VH: B1 VH with A99E, L107A
VL: B1 VL
B17: can9L12VH_N52A (antibody, V domains shown)
VH: B1 VH with N52A, A99E
VL: B1 VL
B18: can9L12VH_P110A (antibody, V domains shown)
VH: B1 VH with A99E, P110A
VL: B1 VL
B19: can9L12VH_Q106A (antibody, V domains shown)
VH: B1 VH with A99E, Q106A
VL: B1 VL
B20: can9L12VH_S30A (antibody, V domains shown)
VH: B1 VH with S30A, A99E
VL: B1 VL
B21: can9L12VH_S31A (antibody, V domains shown)
VH: B1 VH with S31A, A99E
VL: B1 VL
B22: can9L12VH_S53A (antibody, V domains shown)
VH: B1 VH with S53A, A99E
VL: B1 VL
B23: can9L12VH_S56A (antibody, V domains shown)
VH: B1 VH with S56A, A99E
VL: B1 VL
B24: can9L12VH_S57A (antibody, V domains shown)
VH: B1 VH with S57A, A99E
VL: B1 VL

Legend:
Experiment in all cases: SPR (Biacore T200), 100 nM mAb on NGF chip, similarity to parent mAb
human NGF = molecular target: T1, human NGF
Excerpt: (§1) The region of an antibody responsible for antigen recognition represents the paratope. A paratope is created by a combination of amino acids in the complementarity determining regions (CDRs) of both the heavy and light chain variable regions. The binding between antibody and antigen is often mediated by side chains of CDR residues with side chains or carbohydrate moieties of the antigen. To help define critical side chains involved in antibody recognition alanine scanning mutagenesis was performed on each CDR residue in both the heavy and light chain, the technique as described by Cunningham and Wells (1989) Science, Vol. 244, Issue 4908, pp. 1081-1085. These mutants were then individually tested for the ability to NGF using the Biacore. […] Values were then compared to the wild type antibodies and are represented in the tables as a percent of wild type binding. The data presented in Tables 4 and 5 below are shown as a “percent similarity score” compared to wild type.
(§2) The mean response unit of four replicates of the parent mAb+/−3 standard deviations was used to generate parameters to define a threshold of response units comprising both the on- and off-rates antibody binding. The percentage of data points for each mutant fell within this threshold was then used to define a “% similarity score”. […] Results from substitution of alanine at each CDR position

rat NGF = molecular target: T3, rat NGF (rat, UniProt P25427 122-241)
T3 construct: also called rN
Excerpt: as §1, §2

canine NGF = molecular target: T2, canine NGF
Excerpt: as §1, §2

T3 sequence (P25427 122-241 limits assumed): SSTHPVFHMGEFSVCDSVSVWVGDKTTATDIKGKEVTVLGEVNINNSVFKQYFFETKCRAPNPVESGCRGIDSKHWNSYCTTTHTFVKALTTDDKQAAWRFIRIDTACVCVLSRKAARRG

Binder	Percent Similarity Score (KD on hN) (human NGF)	Percent Similarity Score (KD on rN) (rat NGF)	Percent Similarity Score (KD on cN) (canine NGF)
B1	82%	80.5%	97.7%
B2	98.4%	100%	100%
B3	100%	100%	100%
B4	100%	99.9%	100%
B5	8%	11.8%	28.3%
B6	97.4%	94.8%	100%
B7	100%	99.9%	100%
B8	96.2%	93.8%	100%
B9	100%	99.3%	100%
B10	3.4%	4.7%	11%
B11	38.2%	62.5%	99.8%
B12	40%	62%	100%
B13	13.8%	51.5%	38.2%
B14	2.79%	3.25%	10.1%
B15	8.58%	7.92%	22.8%
B16	1.82%	2%	5.45%
B17	38.2%	19.7%	85.8%
B18	2.1%	2.6%	6.48%
B19	100%	99.9%	100%
B20	31.2%	99.9%	94.7%
B21	99.9%	100%	100%
B22	100%	99.9%	100%
B23	40.5%	96%	96.8%
B24	33.4%	100%	89.9%
